Assay [1] has as its target T1, VEGF-C C137S.
T1 construct: also called hVEGF-C C137S; human VEGF-C C137S
T1 VEGF-C: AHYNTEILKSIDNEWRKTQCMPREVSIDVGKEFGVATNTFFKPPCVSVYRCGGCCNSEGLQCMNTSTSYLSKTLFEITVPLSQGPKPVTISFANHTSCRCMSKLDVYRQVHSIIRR
Description: SPR, Biacore (IgG1): human IgG captured on CM5 chip, VEGF-C injected, 1:1 Langmuir fit. Background: SPR reads the build-up and loss of mass on a sensor chip optically.

Assay [2] concerns the target T2, mature VEGF-C (R&D Systems) (human, UniProt P49767 103-227).
T2 construct: Bought from R&D Systems; also called human VEGF-C matured form (R&D systems)
T2 sequence: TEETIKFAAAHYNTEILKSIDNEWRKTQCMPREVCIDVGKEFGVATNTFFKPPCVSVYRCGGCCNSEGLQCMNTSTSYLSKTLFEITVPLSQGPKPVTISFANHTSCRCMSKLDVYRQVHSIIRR
The assay is described as above.

For assay [3], the target named is T1, VEGF-C C137S. Description: phage competition ELISA as in paragraph 556 with human VEGF-C C137S as antigen: phage-displayed clone VC4.5, soluble antigen varied, anti-M13-HRP, OD450.
The target in another assay is T3, hVEGF-C (human, UniProt P49767).
T3 construct: unlabelled; also called human VEGF-C
T3 sequence (VEGF-C, looked up): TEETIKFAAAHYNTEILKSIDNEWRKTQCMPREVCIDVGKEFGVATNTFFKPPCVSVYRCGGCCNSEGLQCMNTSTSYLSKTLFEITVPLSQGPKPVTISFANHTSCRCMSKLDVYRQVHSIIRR
Nature of the assay: phage competition ELISA: phage-displayed clone VC4.5 incubated with increasing soluble hVEGF-C, unbound phage captured on hVEGF-C coated plate, anti-M13-HRP, OD450. (In general: An ELISA detects its analyte on a solid surface through an enzyme-linked reagent.)

Assay [4] deals with T1, VEGF-C C137S. Nature of the assay: competition ELISA: three-fold serial dilutions of VC4.5 IgG incubated 2 h on hVEGF-C C137S coated plate (5 ug/ml), then VC4.5 phage for 15 min, anti-M13-HRP, OD450 in %; competitor: VC4.5 phage.
The target in assay [5] is T4, biotinylated human VEGF-C (human, UniProt P49767 112-227, limits assumed, biotin conjugated (site not stated)).
T4 construct: Panning used the matured form from R&D Systems; also called biotin conjugated VEGF-C; biotinylated VEGF-C
T4 sequence: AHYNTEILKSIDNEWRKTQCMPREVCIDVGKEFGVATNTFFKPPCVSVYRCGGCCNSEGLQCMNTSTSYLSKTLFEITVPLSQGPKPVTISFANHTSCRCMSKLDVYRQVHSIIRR
Description: receptor blocking ELISA: fixed biotin-VEGF-C incubated 2 h with serial dilutions of IgG, unbound VEGF-C captured on immobilized VEGFR3-Fc, streptavidin-HRP, OD450; blocked interaction VEGF-C/VEGFR3. The value stands in brackets after the curve's name in the legend box; the quantity is not named on the sheet, the value agrees with the midpoint of the curve.

The source of these data is patent publication US20110143428A1 (Genentech, published 2011).

What is called Kd is the equilibrium constant for the complex coming apart. The low end stands for tighter binding, the high end for weaker binding. By IC50 is commonly meant the concentration that gives 50% inhibition.

B1: anti-VEGF-C antibody hVC4.5 (hIgG1) (antibody, V domains shown)
VH: EVQLVESGGGLVQPGGSLRLSCAASGFTFTDNWIHWVRQAPGKGLEWVAVISPYSGATYYADSVKGRFTISADTSKNTAYLQMNSLRAEDTAVYYCARDADYKYAFWAFDYWGQGTLVTVSS
VL: DIQMTQSPSSLSASVGDRVTITCRASQDVSTAVAWYQQKPGKAPKLLIYSASFLYSGVPSRFSGSGSGTDFTLTISSLQPEDFATYYCQQSYTTPPTFGQGTKVEIKR
notes: Tested as human IgG1; also called VC4.5 human IgG1 form; human backbone anti-VEGF-C antibody
Turning to B1, the results for the Kd (with VEGF-C C137S [1]; in assay [2]) were 1.1 nM and 140 nM, respectively. For the same molecule, the IC50 was 5.4 nM with VEGF-C C137S [3], 1.7 nM in the assay with hVEGF-C and 0.54 nM in assay [5]. In addition, in the assay with VEGF-C C137S [4], the “IC50 (read off the curve)” value is around 7 nM.
